Assay results published in article PMC9037272.

Legend:
Assay in all cases: FRET or BRET; FRET efficiency by flow cytometry in co-transfected HEK-293T cells 24 h post-transfection; donor mCerulean fusion, acceptor mEYFP fusion; Cer alone as negative control
[1] = target: EYFP-Hsp26 (Drosophila melanogaster) (UniProt P02517)
[2] = target: EYFP-Pen (Drosophila melanogaster) (UniProt P52295)
[3] = target: EYFP-Tsn (Drosophila melanogaster)

Sequence of UniProt P52295 (P52295 whole entry): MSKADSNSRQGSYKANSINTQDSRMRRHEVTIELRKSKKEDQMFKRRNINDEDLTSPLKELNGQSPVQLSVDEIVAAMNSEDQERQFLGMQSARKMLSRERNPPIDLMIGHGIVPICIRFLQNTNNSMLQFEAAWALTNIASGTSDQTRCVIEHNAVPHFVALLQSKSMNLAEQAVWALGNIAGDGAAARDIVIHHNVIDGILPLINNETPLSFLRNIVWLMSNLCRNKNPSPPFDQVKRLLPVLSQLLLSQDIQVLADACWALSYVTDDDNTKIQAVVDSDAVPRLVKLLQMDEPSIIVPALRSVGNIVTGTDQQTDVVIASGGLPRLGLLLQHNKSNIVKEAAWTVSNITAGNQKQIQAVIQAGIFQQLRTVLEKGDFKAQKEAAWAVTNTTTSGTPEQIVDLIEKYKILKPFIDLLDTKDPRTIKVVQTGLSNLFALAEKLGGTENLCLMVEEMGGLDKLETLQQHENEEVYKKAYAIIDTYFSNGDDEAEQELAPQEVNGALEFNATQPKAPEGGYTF
Sequence of UniProt P02517 (P02517 whole entry): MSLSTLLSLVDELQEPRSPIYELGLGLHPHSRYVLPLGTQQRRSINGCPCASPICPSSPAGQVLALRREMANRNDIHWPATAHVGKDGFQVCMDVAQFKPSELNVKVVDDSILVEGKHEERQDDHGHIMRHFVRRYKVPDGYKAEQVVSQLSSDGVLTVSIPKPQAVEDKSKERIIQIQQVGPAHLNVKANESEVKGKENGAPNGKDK

FRET efficiency [1]: 13.8%
FRET efficiency [2]: 7.9%
FRET efficiency [3]: 3.8%
Substance: Cer-NtFT4 (mCerulean fusion of NtFT4) (natural protein)
